Results as given in patent KR20220167207A (dated 2022).
Values belong to the binder of their own block, whether it stands above or below them. Where no end group is shown, it is not given here.

Legend:
[1] = target: T1, CADM1 peptide expressed on SBC-5 small cell lung cancer cells (CADM1-SBC-5); peptide - transmembrane domain - … (human); experiment: flow cytometry, 1 ug scFv on 5x10^5 SBC-5 cells expressing the CADM1 peptide, PE anti-HA
T1 construct: also called CADM1 펩타이드를 발현하는 SBC-5 세포
T1 sequence (Q9BY67 whole entry, looked up): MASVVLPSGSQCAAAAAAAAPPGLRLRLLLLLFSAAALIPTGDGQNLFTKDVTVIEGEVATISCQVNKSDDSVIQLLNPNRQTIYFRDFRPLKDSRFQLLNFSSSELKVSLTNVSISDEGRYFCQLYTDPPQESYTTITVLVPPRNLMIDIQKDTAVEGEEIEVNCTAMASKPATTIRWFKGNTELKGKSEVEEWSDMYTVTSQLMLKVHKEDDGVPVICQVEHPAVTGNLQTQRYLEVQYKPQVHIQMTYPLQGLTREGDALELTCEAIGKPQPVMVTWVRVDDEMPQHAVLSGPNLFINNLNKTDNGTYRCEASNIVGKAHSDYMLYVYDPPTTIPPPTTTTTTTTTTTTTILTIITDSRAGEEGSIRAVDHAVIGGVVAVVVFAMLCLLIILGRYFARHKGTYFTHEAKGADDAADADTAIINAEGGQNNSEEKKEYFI

[2] = target: T2, BSA-conjugated mouse CADM1 peptide (mouse, also: conjugated to BSA via added C-terminal Cys); experiment: ELISA, scFv titrated on coated BSA-conjugated mouse CADM1 peptide, anti-HA-HRP, OD450
T2 construct: also called mouse peptide
T2 peptide: DSRAGEEGTIGAVDHC(BSA)

[3] = target: T3, comparison structure: the same structure without the CADM1 peptide (Myc tag, hinge, transmembrane domain, …); experiment: flow cytometry, 1 ug scFv on 5x10^5 cells with the structure without the CADM1 peptide, PE anti-HA
T3 construct: also called 비교군 구조; CADM1 펩타이드를 포함하지 않는 세포

[4] = target: T4, BSA-conjugated human CADM1 peptide (human, also: conjugated to BSA via added C-terminal Cys); experiment: ELISA, scFv titrated on coated BSA-conjugated human CADM1 peptide, anti-HA-HRP, OD450
T4 construct: also called human peptide; rhCADM1 peptide
T4 peptide: DSRAGEEGSIRAVDHC(BSA)

- 결합력 (%) [1]: 38.4%
- Bmax [2]: 4
- Kd [2]: 2.72 nM
- 결합력 (%) [3]: 1.2%
- Bmax [4]: 4.01
- Kd [4]: 0.649 nM
B1: RB11 (scFv, V domains shown)
VH: AVTLDESGGGLQTPGGGLSLVCKGSGFTFSSYAMNWVRQAPGKGLEFVAQITSSGRYTYYGTAVKGRATISRDNGQSTVRLQLNNLRAEDSGTYYCAKDAAAGYYDGATAGDIDAWGHGTEVIVSS
VL: LTQPSSVSANPGGTVKITCSGGSGSYGWFQQKAPGSAPVTLIYANTNRPSDIPSRFSGSKSGSTATLTITGVQVEDEAVYYCGSTDSSYVSIFGAGTTLTVL
notes: Tested as purified scFv with His tag and HA tag; chicken immune library

- 결합력 (%) [1]: 10%
- Bmax [2]: 2.4
- Kd [2]: 124 nM
- 결합력 (%) [3]: 0.7%
- Bmax [4]: 4.16
- Kd [4]: 5.58 nM
B2: RH6 (scFv, V domains shown)
VH: B1 VH
VL: VTQPSSVSANPGESVKITCSGGSYSYGWYQQKSPGSAPVTVIYSNNQRPSNIPSRFSGSTSGSTSTLTITGVQADDEAVYFCGTFDSSTNAAFGAGTTLTVL
notes: as for B1
